Experimental data as given in paper PMC7644609 (Proteins, 2020).

Target: the molecule itself
Test: crystal structure

B1: dCaprin fragment (residues 187-309), dimerization domain of Drosophila melanogaster Caprin (domain or fragment)
chain: GPSSPSRKDNLAKTIAETAKIREVLIIQNVLNCFNDDQVRSDFLNGENGAKKLENTELELLEKFFIETQTRRPETADDVSFIATAQKSAELFYSTINARPKSFGEVSFEKLRSLFQQIQDSGYLDKYYL
modifications: Se-Met labelled (L-seleno-methionine in place of methionine) in the crystal used for the structure
stoichiometry N: 2
